Twelve molecules from patent US20150196651A1 (published 2015) can be followed below.

As a reminder, the Ki is a measure of affinity in units of concentration, obtained from inhibition or displacement.

First the molecules themselves.
B1: analog no. 29 (peptide)
peptide: TPDINPAWY[NMeA]SRGIRPVGRF-NH2
modifications: N-terminus assumed
SMILES: CC[C@H](C)[C@H](NC(=O)CNC(=O)[C@H](CCCNC(=N)N)NC(=O)[C@H](CO)NC(=O)[C@H](C)N(C)C(=O)[C@H](Cc1ccc(O)cc1)NC(=O)[C@H](Cc1c[nH]c2ccccc12)NC(=O)[C@H](C)NC(=O)[C@@H]1CCCN1C(=O)[C@H](CC(N)=O)NC(=O)[C@@H](NC(=O)[C@H](CC(=O)O)NC(=O)[C@@H]1CCCN1C(=O)[C@@H](N)[C@@H](C)O)[C@@H](C)CC)C(=O)N[C@@H](CCCNC(=N)N)C(=O)N1CCC[C@H]1C(=O)N[C@H](C(=O)NCC(=O)N[C@@H](CCCNC(=N)N)C(=O)N[C@@H](Cc1ccccc1)C(N)=O)C(C)C
B2: analog no. 28 (peptide)
peptide: Myristoyl-TPDINPAWYTGR[Sar]IRPVGRF-NH2
SMILES: CCCCCCCCCCCCCC(=O)N[C@H](C(=O)N1CCC[C@H]1C(=O)N[C@@H](CC(=O)O)C(=O)N[C@H](C(=O)N[C@@H](CC(N)=O)C(=O)N1CCC[C@H]1C(=O)N[C@@H](C)C(=O)N[C@@H](Cc1c[nH]c2ccccc12)C(=O)N[C@@H](Cc1ccc(O)cc1)C(=O)N[C@H](C(=O)NCC(=O)N[C@@H](CCCNC(=N)N)C(=O)N(C)CC(=O)N[C@H](C(=O)N[C@@H](CCCNC(=N)N)C(=O)N1CCC[C@H]1C(=O)N[C@H](C(=O)NCC(=O)N[C@@H](CCCNC(=N)N)C(=O)N[C@@H](Cc1ccccc1)C(N)=O)C(C)C)[C@@H](C)CC)[C@@H](C)O)[C@@H](C)CC)[C@@H](C)O
B3: analog no. 27 (peptide)
peptide: TPDINPAWYTGR[Sar]IRPVGRF-NH2
modifications: N-terminus assumed
SMILES: CC[C@H](C)[C@H](NC(=O)CN(C)C(=O)[C@H](CCCNC(=N)N)NC(=O)CNC(=O)[C@@H](NC(=O)[C@H](Cc1ccc(O)cc1)NC(=O)[C@H](Cc1c[nH]c2ccccc12)NC(=O)[C@H](C)NC(=O)[C@@H]1CCCN1C(=O)[C@H](CC(N)=O)NC(=O)[C@@H](NC(=O)[C@H](CC(=O)O)NC(=O)[C@@H]1CCCN1C(=O)[C@@H](N)[C@@H](C)O)[C@@H](C)CC)[C@@H](C)O)C(=O)N[C@@H](CCCNC(=N)N)C(=O)N1CCC[C@H]1C(=O)N[C@H](C(=O)NCC(=O)N[C@@H](CCCNC(=N)N)C(=O)N[C@@H](Cc1ccccc1)C(N)=O)C(C)C
B4: analog no. 32 (peptide)
peptide: Myristoyl-TPDINPAWYTGRGARPFGRF-NH2
SMILES: CCCCCCCCCCCCCC(=O)N[C@H](C(=O)N1CCC[C@H]1C(=O)N[C@@H](CC(=O)O)C(=O)N[C@H](C(=O)N[C@@H](CC(N)=O)C(=O)N1CCC[C@H]1C(=O)N[C@@H](C)C(=O)N[C@@H](Cc1c[nH]c2ccccc12)C(=O)N[C@@H](Cc1ccc(O)cc1)C(=O)N[C@H](C(=O)NCC(=O)N[C@@H](CCCNC(=N)N)C(=O)NCC(=O)N[C@@H](C)C(=O)N[C@@H](CCCNC(=N)N)C(=O)N1CCC[C@H]1C(=O)N[C@@H](Cc1ccccc1)C(=O)NCC(=O)N[C@@H](CCCNC(=N)N)C(=O)N[C@@H](Cc1ccccc1)C(N)=O)[C@@H](C)O)[C@@H](C)CC)[C@@H](C)O
B5: analog no. 1 (peptide)
peptide: Myristoyl-TPDINPAWYTGRGIRPVGRF-NH2
SMILES: CCCCCCCCCCCCCC(=O)N[C@H](C(=O)N1CCC[C@H]1C(=O)N[C@@H](CC(=O)O)C(=O)N[C@H](C(=O)N[C@@H](CC(N)=O)C(=O)N1CCC[C@H]1C(=O)N[C@@H](C)C(=O)N[C@@H](Cc1c[nH]c2ccccc12)C(=O)N[C@@H](Cc1ccc(O)cc1)C(=O)N[C@H](C(=O)NCC(=O)N[C@@H](CCCNC(=N)N)C(=O)NCC(=O)N[C@H](C(=O)N[C@@H](CCCNC(=N)N)C(=O)N1CCC[C@H]1C(=O)N[C@H](C(=O)NCC(=O)N[C@@H](CCCNC(=N)N)C(=O)N[C@@H](Cc1ccccc1)C(N)=O)C(C)C)[C@@H](C)CC)[C@@H](C)O)[C@@H](C)CC)[C@@H](C)O
B6: analog no. 34 (peptide)
peptide: Myristoyl-TPDINPAWYASRPFRPVGRF-NH2
SMILES: CCCCCCCCCCCCCC(=O)N[C@H](C(=O)N1CCC[C@H]1C(=O)N[C@@H](CC(=O)O)C(=O)N[C@H](C(=O)N[C@@H](CC(N)=O)C(=O)N1CCC[C@H]1C(=O)N[C@@H](C)C(=O)N[C@@H](Cc1c[nH]c2ccccc12)C(=O)N[C@@H](Cc1ccc(O)cc1)C(=O)N[C@@H](C)C(=O)N[C@@H](CO)C(=O)N[C@@H](CCCNC(=N)N)C(=O)N1CCC[C@H]1C(=O)N[C@@H](Cc1ccccc1)C(=O)N[C@@H](CCCNC(=N)N)C(=O)N1CCC[C@H]1C(=O)N[C@H](C(=O)NCC(=O)N[C@@H](CCCNC(=N)N)C(=O)N[C@@H](Cc1ccccc1)C(N)=O)C(C)C)[C@@H](C)CC)[C@@H](C)O
B7: analog no. 30 (peptide)
peptide: Myristoyl-TPDINPAWY[NMeA]SRGIRPVGRF-NH2
SMILES: CCCCCCCCCCCCCC(=O)N[C@H](C(=O)N1CCC[C@H]1C(=O)N[C@@H](CC(=O)O)C(=O)N[C@H](C(=O)N[C@@H](CC(N)=O)C(=O)N1CCC[C@H]1C(=O)N[C@@H](C)C(=O)N[C@@H](Cc1c[nH]c2ccccc12)C(=O)N[C@@H](Cc1ccc(O)cc1)C(=O)N(C)[C@@H](C)C(=O)N[C@@H](CO)C(=O)N[C@@H](CCCNC(=N)N)C(=O)NCC(=O)N[C@H](C(=O)N[C@@H](CCCNC(=N)N)C(=O)N1CCC[C@H]1C(=O)N[C@H](C(=O)NCC(=O)N[C@@H](CCCNC(=N)N)C(=O)N[C@@H](Cc1ccccc1)C(N)=O)C(C)C)[C@@H](C)CC)[C@@H](C)CC)[C@@H](C)O

Numbered stars: 1 amine (or outer) side, 2 acyl side, 3 side chain; on linkers, the order of the positions; unused ones are H or OH. Square brackets hold non-standard residues; d marks the D form. Side chains are listed from the residue outwards. Ends that are not written are not given here. * marks the point of attachment. γGlu = O=C(O)[C@H](CCC(=O)[*:2])N[*:1]; Palmitoyl = CCCCCCCCCCCCCCCC(=O)*; Myristoyl = CCCCCCCCCCCCCC(=O)*; NMeA = CN[C@@H](C)C(=O)O; Sar = CNCC(=O)O

The target in one assay is T1, rat PrRP receptor in RC-4B/C cells (rat, UniProt Q64121 1-370).
T1 construct: whole, on cells; endogenous receptor of RC-4B/C cells (ATCC); also called rat receptor; GPR10 receptor expressed in rat hypophyseal cells
T1 sequence (looked up): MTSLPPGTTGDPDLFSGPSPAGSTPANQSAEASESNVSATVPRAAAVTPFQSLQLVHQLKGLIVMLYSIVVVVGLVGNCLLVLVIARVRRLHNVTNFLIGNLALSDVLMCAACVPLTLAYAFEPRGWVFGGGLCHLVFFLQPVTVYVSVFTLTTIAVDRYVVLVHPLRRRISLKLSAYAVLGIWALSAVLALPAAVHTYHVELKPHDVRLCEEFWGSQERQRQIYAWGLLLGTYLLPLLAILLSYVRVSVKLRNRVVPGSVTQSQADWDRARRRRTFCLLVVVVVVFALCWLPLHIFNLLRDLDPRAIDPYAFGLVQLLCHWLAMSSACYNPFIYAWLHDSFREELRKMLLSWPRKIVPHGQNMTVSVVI
The experiment in a line: competition with 125I-rat PrRP31, RC-4B/C cells. As for the experimental part: The rat pituitary cell line RC-4B/C (ATCC, Manassas, USA) was grown on 24-well plates which had their bottom coated with polyethyleneimine. The cells were grown to the optimal density of 300-450 thousand cells per well.
(§1) Plates were incubated for 60 minutes at room temperature. After incubation, the cells were solubilized in 0.1 mol/l solution of NaOH, and the radioactivity bound to the cells was counted using a γ-counter. The experiments were performed in duplicate, and repeated at least three times.
As to B1, the “% of PrRP31” value worked out at 10% and the affinity corresponds to a Ki of 49.4 nM.
Taken in the same sequence, the figures for SRTHRHSMEIK([γGlu-Palmitoyl])TPDINPAWYASRGIRPVGRF-NH2 (also called compound 52) [analog no. 52] were 57% and 4.23 nM.
In the same order, the values of SRTHRHSMEIRTPDINPAWYASRGIRPVGRF-NH2 (synthetic peptide) [Human PrRP31] are 207% and 2.38 nM.
Taken in the same sequence, the figures for B2 were 1540% and 0.32 nM.
With B3, the “% of PrRP31” value amounted to 62% and the Ki was determined as 7.94 nM.
In the same order, the values of TPDINPAWYTGRGIRPVGRF-NH2 (synthetic peptide) [Rat PrRP20] are 143% and 3.44 nM.
Taken in the same sequence, the figures for B4 were 68% and 7.21 nM.
Taken in the same sequence, the figures for TPDINPAWYASRPFRPVGRF-NH2 [analog no. 33] were 230% and 2.14 nM.
In the case of B5, the “% of PrRP31” value is 632% and the Ki turned out to be 0.78 nM.
Taken in the same sequence, the figures for B6 were 587% and 0.84 nM.
In the case of TPDINPAWYTGRGARPFGRF-NH2 [analog no. 31], the “% of PrRP31” value was found to be 0.8% and the Ki amounted to 655 nM.
In the same order, the values of B7 are 1070% and 0.46 nM.

In a further assay the target is T2, human PrRP receptor GPR10 (human, UniProt P49683 1-370).
T2 construct: whole, on cells; also called GPR10 human receptor transfected in CHO cells; human GPR10 receptor
T2 sequence (looked up): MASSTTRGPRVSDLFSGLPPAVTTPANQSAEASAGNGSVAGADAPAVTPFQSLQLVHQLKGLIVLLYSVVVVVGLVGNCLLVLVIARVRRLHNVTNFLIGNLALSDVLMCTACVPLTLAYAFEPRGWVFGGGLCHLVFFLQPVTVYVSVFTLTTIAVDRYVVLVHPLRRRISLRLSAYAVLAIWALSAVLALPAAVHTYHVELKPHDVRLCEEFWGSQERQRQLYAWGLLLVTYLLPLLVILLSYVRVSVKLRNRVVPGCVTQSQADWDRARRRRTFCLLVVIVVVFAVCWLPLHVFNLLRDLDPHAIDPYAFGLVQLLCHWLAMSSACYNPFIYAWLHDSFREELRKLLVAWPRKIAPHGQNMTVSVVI
Briefly: competition with 125I-human PrRP31, CHO cells with human GPR10. The procedure: CHO cells transfected with human PrRP receptor GPR10 (Perkin Elmer, USA) were grown on 24-well plates coated with polyethyleneimine. […] The following agents were used for the experiment: binding buffer (25 mmol.1⁻¹ Tris, pH 7.4; 118 mmol.1⁻¹ NaCl, 10 mmol.1⁻¹ MgCl₂, 1 mmol.1⁻¹ CaCl₂, 5.5 mmol.1⁻¹ glucose, 0.5 mg/ml BSA), unlabeled analogs of PrRP (i.e. the analog being tested) at a final concentration between 10⁻¹¹ to 10⁻⁴ mol.1⁻¹, and radiolabeled human ¹²⁵1-PrRP31 at a final concentration of 5×10⁻¹¹ mol.1⁻¹.
as §1
As to B1, the “% of PrRP31” value was 45% and the inhibition constant Ki is 8.72 nM.
For the molecule SRTHRHSMEIK([γGlu-Palmitoyl])TPDINPAWYASRGIRPVGRF-NH2 (also called compound 52) [analog no. 52], the “% of PrRP31” value was 65% and the Ki was 5.95 nM.
Take SRTHRHSMEIRTPDINPAWYASRGIRPVGRF-NH2 (synthetic peptide) [Human PrRP31]: the “% of PrRP31” value worked out at 86%.
As for B2, the “% of PrRP31” value worked out at 125% and the affinity, expressed as Ki, was 3.12 nM.
As for B3, the “% of PrRP31” value turned out to be 86% and the Ki came out at 4.51 nM.
TPDINPAWYTGRGIRPVGRF-NH2 (synthetic peptide) [Rat PrRP20]: the “% of PrRP31” value is 70% and affinity was put at a Ki of 5.56 nM.
Taken in the same sequence, the figures for B4 were 46% and 8.47 nM.
Taken in the same sequence, the figures for TPDINPAWYASRPFRPVGRF-NH2 [analog no. 33] were 225% and 1.73 nM.
For the molecule B5, the “% of PrRP31” value was determined as 133% and the Ki was determined as 2.93 nM.
In the same order, the values of B6 are 671% and 0.58 nM.
Taken in the same sequence, the figures for TPDINPAWYTGRGARPFGRF-NH2 [analog no. 31] were 0.7% and 583 nM.
In the same order, the values of B7 are 185% and 2.1 nM.
